Test system: MOR23-1
Test: CRE-luciferase reporter gene assay, MOR23-1
Type: cell-based, mouse
Conditions: 293T cells expressing RTP1 variant
Experimental: Four ORs (S6/79, S18, S46 and S50) previously assayed using other techniques (see, e.g., Malnic, B., et al. (1999) Cell 96, 713-723; herein incorporated by reference in its entirety) were tested against an assay panel of aliphatic alcohols, aldehydes and acids and some other odorants. Additionally, five “orphan” class I ORs (MOR23-1, MOR31-4, MOR31-6, MOR32-5 and MOR32-11) whose cognate ligands were unknown were tested. At a suprathreshold concentration of 100 uM, all these ORs were odorant selective, responding to only a small subset of the odorants tested (see FIG. 11A). This specificity was retained at lower, more physiologically relevant concentrations. Many of these ORs responded to odorants present in micromolar concentrations. The cell-surface expression of these ORs by living-cell immunofluorescence were evaluated. Some ORs (S18, MOR31-4, MOR31-6 and MOR32-5) were strongly expressed while other ORs (S6, S50, MOR23-1, MOR32-11) were weakly expressed (see FIG. 12). […]
Dual-Glo system (Promega) for luciferase assay was used. […] Luminescence was measured using Wallac Victor 1420 (Perkin-Elmer). Normalized luciferase activity was calculated as [Luc (N)-Luc (0)]/RL (N), where Luc (N)=Luminescent count of a certain well, Luc (0)=Luminescent count without odorant for each OR, and RL (N)=Luminescent count of Renilla Luciferase of each well. […]

23-1 activity as indicated by luciferase expression: Increased enhancement
B1: RTP1-A1: RTP1 variant from deleting portions of RTP1-A; murine SEQ ID NO: 46, human SEQ ID NO: 47 (protein, listed as Mus musculus)
chain: MCKSVTTGEWKKVFYEKMEEVKPADSWDFIIDPNLKHNVLAPGWKQYLELHASGRFHCSWCWHTWQSPHVVILFHMYLDKAQRAGSVRMRVFKQLCYECGTARLDESSMLEENIESLVDNLITSLREQCYGERGGHYRIHVASRQDNRRHRGEFCEACQEGIVHWKPSEKLLEEEATTYTFSRAPSPTKPQAETGSGCNFCSIPWCLFWATVLMLIIYLQFSFRTSV

Source: patent publication US7838288B2, “Modulators of odorant receptors” (Duke University, priority 2004, dated 2010)
